# Columns and labels:
# huNav1.7α + β1-β2-β3 = target: T1, huNav1.7α + β1-β2-β3 (human, UniProt Q15858 1-1988; A5A6L6 19-218; O60939 30-215; Q2KI11 23-215); experiment: binding FACS, CHO FlpIn cells
# T1 construct: Cell line (CHO FlpIn, HEK FlpIn, transient HEK293T) is named under assay; also called huNav1.7-beta1-beta2-beta3; human Nav1.7α with Navβ1, Navβ2 and Navβ3
# Outline: (§1)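 FLAG3-tagged ISVD, 30 min, 4° C, FACS buffer (PBS/10% FBS/NaN₃); 1×10^5 cells/well; detection murine anti-Flag; PI 1 μg/mL live gate; washes between steps.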
# huNav1.7α + β1 (HEKa/β1) = target: T2, huNav1.7α + β1 (HEKa/β1) (human, UniProt Q15858 1-1988; Q07699 19-218); experiment: binding FACS, HEKa/β1 cells
# T2 construct: also called HEKa/β1 huNav1.7α
# Protocol: Binding of the ISVDs to cell-expressed Nav1.7α was detected via murine anti-Flag (Sigma, catalog #F1804). Briefly, cells were resuspended in FACS buffer (PBS, 10% FBS, NaN₃) and transferred to a 96-well V-bottom plate at 1×10^5 cells/well. Purified FLAG3-tagged ISVD was diluted in FACS buffer and added to the cells for 30 minutes at 4° C. […] Prior to the read-out, the samples were resuspended in 1 μg/mL propidium iodide (Sigma, catalog #P4170) to exclude dead cells. Between each step, the cells were centrifuged for 5 minutes at 200 grams and washed with 100 μL/well FACS buffer.
# huNav1.7α+β1-β2-β3 = target: T3, huNav1.7α+β1-β2-β3 (human, UniProt Q15858 1-1988; Q07699 19-218; O60939 30-215; Q9NY72 23-215); experiment: binding FACS, CHO FlpIn cells
# T3 construct: 5N11S variant; also called huNav1.7-beta1-beta2-beta3; huNav1.7α+Navβ1-Navβ2-Navβ3
# Outline: as §1
Binder,EC50 (huNav1.7α + β1-β2-β3) [nM],EC50 (huNav1.7α + β1 (HEKa/β1)) [nM],EC50 (huNav1.7α+β1-β2-β3) [nM],binding result (huNav1.7α+β1-β2-β3)
"F010301594 (VHH, R100aK vs F0103362B08 (Kabat)) VHH: EVQLVESGGGLVQAGGSLRLSCAASVRPFSTSAMGWFRQAPEKEREAVAGILWNGIVTYYADSVKGRFTISRDNAKNEVYLQMNKLKPEDTAVYYCALDRDYGGKSFSAYEYEYWGQGTLVTVSS",110,29,,
"F010301604 (VHH, R100aQ vs F0103362B08 (Kabat)) VHH: EVQLVESGGGLVQAGGSLRLSCAASVRPFSTSAMGWFRQAPEKEREAVAGILWNGIVTYYADSVKGRFTISRDNAKNEVYLQMNKLKPEDTAVYYCALDRDYGGQSFSAYEYEYWGQGTLVTVSS",190,52,,
"F010301595 (VHH, D97A vs F0103362B08 (Kabat)) VHH: EVQLVESGGGLVQAGGSLRLSCAASVRPFSTSAMGWFRQAPEKEREAVAGILWNGIVTYYADSVKGRFTISRDNAKNEVYLQMNKLKPEDTAVYYCALDRAYGGRSFSAYEYEYWGQGTLVTVSS",62,17,,
"F010301609 (VHH, Y100fQ vs F0103362B08 (Kabat)) VHH: EVQLVESGGGLVQAGGSLRLSCAASVRPFSTSAMGWFRQAPEKEREAVAGILWNGIVTYYADSVKGRFTISRDNAKNEVYLQMNKLKPEDTAVYYCALDRDYGGRSFSAQEYEYWGQGTLVTVSS",190,37,,
"F010301596 (VHH, G99A vs F0103362B08 (Kabat)) VHH: EVQLVESGGGLVQAGGSLRLSCAASVRPFSTSAMGWFRQAPEKEREAVAGILWNGIVTYYADSVKGRFTISRDNAKNEVYLQMNKLKPEDTAVYYCALDRDYAGRSFSAYEYEYWGQGTLVTVSS",140,50,,
"F010301606 (VHH, Y100fK vs F0103362B08 (Kabat)) VHH: EVQLVESGGGLVQAGGSLRLSCAASVRPFSTSAMGWFRQAPEKEREAVAGILWNGIVTYYADSVKGRFTISRDNAKNEVYLQMNKLKPEDTAVYYCALDRDYGGRSFSAKEYEYWGQGTLVTVSS",65,24,,
"F010301598 (VHH, G99Q vs F0103362B08 (Kabat)) VHH: EVQLVESGGGLVQAGGSLRLSCAASVRPFSTSAMGWFRQAPEKEREAVAGILWNGIVTYYADSVKGRFTISRDNAKNEVYLQMNKLKPEDTAVYYCALDRDYQGRSFSAYEYEYWGQGTLVTVSS",89,29,,
"F010301607 (VHH, Y100fA vs F0103362B08 (Kabat)) VHH: EVQLVESGGGLVQAGGSLRLSCAASVRPFSTSAMGWFRQAPEKEREAVAGILWNGIVTYYADSVKGRFTISRDNAKNEVYLQMNKLKPEDTAVYYCALDRDYGGRSFSAAEYEYWGQGTLVTVSS",90,30,,
"F010301301 (VHH, vs 387G05: I31T) VHH: EVQLVESGGGLVQAGGSLRLSCDASGRILRTGYMRWHRQGAGKQREFVARITDDSATDYADSVKGRFTISRDNAKNTVYLQMNNLNPEDTAVYYCEALVTASVRGGSIHSGTYWGRGTLVTVSS",,,7.3,
"F010301409 (VHH, vs 387G05: H100fV) VHH: EVQLVESGGGLVQAGGSLRLSCDASGRILRIGYMRWHRQGAGKQREFVARITDDSATDYADSVKGRFTISRDNAKNTVYLQMNNLNPEDTAVYYCEALVTASVRGGSIVSGTYWGRGTLVTVSS",,,5.1,
"F010301335 (VHH, vs 387G05: R50V) VHH: EVQLVESGGGLVQAGGSLRLSCDASGRILRIGYMRWHRQGAGKQREFVAVITDDSATDYADSVKGRFTISRDNAKNTVYLQMNNLNPEDTAVYYCEALVTASVRGGSIHSGTYWGRGTLVTVSS",,,7.9,
"F010301360 (VHH, vs 387G05: A56T) VHH: EVQLVESGGGLVQAGGSLRLSCDASGRILRIGYMRWHRQGAGKQREFVARITDDSTTDYADSVKGRFTISRDNAKNTVYLQMNNLNPEDTAVYYCEALVTASVRGGSIHSGTYWGRGTLVTVSS",,,5.2,
"F010301418 (VHH, vs 387G05: Y102W) VHH: EVQLVESGGGLVQAGGSLRLSCDASGRILRIGYMRWHRQGAGKQREFVARITDDSATDYADSVKGRFTISRDNAKNTVYLQMNNLNPEDTAVYYCEALVTASVRGGSIHSGTWWGRGTLVTVSS",,,4.9,
"F010301425 (VHH, vs 387G05: G100bV) VHH: EVQLVESGGGLVQAGGSLRLSCDASGRILRIGYMRWHRQGAGKQREFVARITDDSATDYADSVKGRFTISRDNAKNTVYLQMNNLNPEDTAVYYCEALVTASVRVGSIHSGTYWGRGTLVTVSS",,,15,
"F010301309 (VHH, vs 387G05: L29V) VHH: EVQLVESGGGLVQAGGSLRLSCDASGRIVRIGYMRWHRQGAGKQREFVARITDDSATDYADSVKGRFTISRDNAKNTVYLQMNNLNPEDTAVYYCEALVTASVRGGSIHSGTYWGRGTLVTVSS",,,5.4,
"F010301313 (VHH, vs 387G05: R35K) VHH: EVQLVESGGGLVQAGGSLRLSCDASGRILRIGYMKWHRQGAGKQREFVARITDDSATDYADSVKGRFTISRDNAKNTVYLQMNNLNPEDTAVYYCEALVTASVRGGSIHSGTYWGRGTLVTVSS",,,5.5,
"F010301304 (VHH, vs 387G05: I31W) VHH: EVQLVESGGGLVQAGGSLRLSCDASGRILRWGYMRWHRQGAGKQREFVARITDDSATDYADSVKGRFTISRDNAKNTVYLQMNNLNPEDTAVYYCEALVTASVRGGSIHSGTYWGRGTLVTVSS",,,5.7,
"F010301328 (VHH, vs 387G05: T57V) VHH: EVQLVESGGGLVQAGGSLRLSCDASGRILRIGYMRWHRQGAGKQREFVARITDDSAVDYADSVKGRFTISRDNAKNTVYLQMNNLNPEDTAVYYCEALVTASVRGGSIHSGTYWGRGTLVTVSS",,,5,
"F010301387 (VHH, vs 387G05: V100A) VHH: EVQLVESGGGLVQAGGSLRLSCDASGRILRIGYMRWHRQGAGKQREFVARITDDSATDYADSVKGRFTISRDNAKNTVYLQMNNLNPEDTAVYYCEALVTASARGGSIHSGTYWGRGTLVTVSS",,,5.2,

# More lines, now with the values ahead:
EC50 (huNav1.7α + β1-β2-β3) [nM],EC50 (huNav1.7α + β1 (HEKa/β1)) [nM],EC50 (huNav1.7α+β1-β2-β3) [nM],binding result (huNav1.7α+β1-β2-β3),Binder
170,40,,,"F010301622 (VHH, Y100fD vs F0103362B08 (Kabat)) VHH: EVQLVESGGGLVQAGGSLRLSCAASVRPFSTSAMGWFRQAPEKEREAVAGILWNGIVTYYADSVKGRFTISRDNAKNEVYLQMNKLKPEDTAVYYCALDRDYGGRSFSADEYEYWGQGTLVTVSS"
170,44,,,"F010301617 (VHH, F100cQ vs F0103362B08 (Kabat)) VHH: EVQLVESGGGLVQAGGSLRLSCAASVRPFSTSAMGWFRQAPEKEREAVAGILWNGIVTYYADSVKGRFTISRDNAKNEVYLQMNKLKPEDTAVYYCALDRDYGGRSQSAYEYEYWGQGTLVTVSS"
150,34,,,"F010301621 (VHH, Y100fG vs F0103362B08 (Kabat)) VHH: EVQLVESGGGLVQAGGSLRLSCAASVRPFSTSAMGWFRQAPEKEREAVAGILWNGIVTYYADSVKGRFTISRDNAKNEVYLQMNKLKPEDTAVYYCALDRDYGGRSFSAGEYEYWGQGTLVTVSS"
180,47,,,"F010301619 (VHH, F100cK vs F0103362B08 (Kabat)) VHH: EVQLVESGGGLVQAGGSLRLSCAASVRPFSTSAMGWFRQAPEKEREAVAGILWNGIVTYYADSVKGRFTISRDNAKNEVYLQMNKLKPEDTAVYYCALDRDYGGRSKSAYEYEYWGQGTLVTVSS"
76,23,,,"F010301627 (VHH, G50A vs F0103362B08 (Kabat)) VHH: EVQLVESGGGLVQAGGSLRLSCAASVRPFSTSAMGWFRQAPEKEREAVAAILWNGIVTYYADSVKGRFTISRDNAKNEVYLQMNKLKPEDTAVYYCALDRDYGGRSFSAYEYEYWGQGTLVTVSS"
170,44,,,"F010301612 (VHH, Y100fT vs F0103362B08 (Kabat)) VHH: EVQLVESGGGLVQAGGSLRLSCAASVRPFSTSAMGWFRQAPEKEREAVAGILWNGIVTYYADSVKGRFTISRDNAKNEVYLQMNKLKPEDTAVYYCALDRDYGGRSFSATEYEYWGQGTLVTVSS"
190,39,,,"F010301618 (VHH, Y102H vs F0103362B08 (Kabat)) VHH: EVQLVESGGGLVQAGGSLRLSCAASVRPFSTSAMGWFRQAPEKEREAVAGILWNGIVTYYADSVKGRFTISRDNAKNEVYLQMNKLKPEDTAVYYCALDRDYGGRSFSAYEYEHWGQGTLVTVSS"
120,42,,,"F010301629 (VHH, G50S vs F0103362B08 (Kabat)) VHH: EVQLVESGGGLVQAGGSLRLSCAASVRPFSTSAMGWFRQAPEKEREAVASILWNGIVTYYADSVKGRFTISRDNAKNEVYLQMNKLKPEDTAVYYCALDRDYGGRSFSAYEYEYWGQGTLVTVSS"
,,,no binding,"F010301416 (VHH, vs 387G05: T101Q) VHH: EVQLVESGGGLVQAGGSLRLSCDASGRILRIGYMRWHRQGAGKQREFVARITDDSATDYADSVKGRFTISRDNAKNTVYLQMNNLNPEDTAVYYCEALVTASVRGGSIHSGQYWGRGTLVTVSS"

# — patent publication US20240002497A1 (Merck Sharp & Dohme, published 2024)
